Data set [1] addresses Malic enzyme Mae1 from Haloferax volcanii, recombinant (Haloferax volcanii). Nature of the data set: SEC; Superdex 200 HiLoad column (1.6 x 60 cm), flow rate 1 ml per min, calibrated with HMW and LMW kits (GE Healthcare); native mass compared with the subunit mass by SDS-PAGE; 50 mM Tris-HCl, pH 7.5, 1.5 M KCl. On the technique in general: In gel filtration, larger molecules generally elute earlier.

Substrate in data set [2]: NC(=O)c1ccc[n+]([C@@H]2O[C@H](COP(=O)(O)OP(=O)(O)OC[C@H]3O[C@@H](n4cnc5c(N)ncnc54)[C@H](OP(=O)(O)O)[C@@H]3O)[C@@H](O)[C@H]2O)c1
Nature of the data set: purified protein. It counts as biochemical, Haloferax volcanii. As to conditions: L-malate, MnCl2, 4 M KCl, pH 5.75, 42°C, varied: cofactor.

Substrate in data set [3]: NC(=O)C1=CN([C@@H]2O[C@H](COP(=O)(O)OP(=O)(O)OC[C@H]3O[C@@H](n4cnc5c(N)ncnc54)[C@H](OP(=O)(O)O)[C@@H]3O)[C@@H](O)[C@H]2O)C=CC1
As to the kind of experiment: purified protein. The format is biochemical, Haloferax volcanii. The note with it: reverse reaction, pyruvate, NaHCO3, MnCl2, 4 M KCl, pH 5.75, 42°C, varied: cofactor.

Substrate in data set [4]: O=C(O)C[C@H](O)C(=O)O
Nature of the data set: purified protein. The note with it: NADP+, MnCl2, 4 M KCl, pH 5.75, 42°C, pH 5.75.

Data set [5] concerns the molecule itself. Nature of the data set: SEC; Superdex 200 HiLoad column (1.6 x 60 cm), flow rate 1 ml per min, calibrated with HMW and LMW kits (GE Healthcare); native mass compared with the subunit mass by SDS-PAGE; 50 mM Tris-HCl, pH 7.5, 1.5 M KCl.
Substrate in data set [6]: CC(=O)SCCNC(=O)CCNC(=O)[C@H](O)C(C)(C)COP(=O)(O)OP(=O)(O)OC[C@H]1O[C@@H](n2cnc3c(N)ncnc32)[C@H](O)[C@@H]1OP(=O)(O)O
Nature of the data set: purified protein. The format is biochemical, Haloferax volcanii. The note with it: acetate formation (reverse), AMP, PPi, MgCl2, 2 M KCl, pH 7.0, 42°C.

Substrate in data set [7]: Nc1ncnc2c1ncn2[C@@H]1O[C@H](COP(=O)(O)OP(=O)(O)OP(=O)(O)O)[C@@H](O)[C@H]1O
As to the kind of experiment: purified protein. The format is biochemical, Haloferax volcanii. The note with it: acetate activation, ATP, CoA.

Substrate in data set [8]: CC(C)(COP(=O)(O)OP(=O)(O)OC[C@H]1O[C@@H](n2cnc3c(N)ncnc32)[C@H](O)[C@@H]1OP(=O)(O)O)[C@@H](O)C(=O)NCCC(=O)NCCS
Nature of the data set: purified protein. The format is biochemical, Haloferax volcanii. As to conditions: acetate activation, ATP, CoA.

Substrate in data set [9]: CC(=O)O
Nature of the data set: purified protein. The note with it: acetate activation, ATP, CoA.

Data set [10] deals with the molecule itself. As to the kind of experiment: SEC; Superdex 200 HiLoad column (1.6 x 60 cm), flow rate 1 ml per min, calibrated with HMW and LMW kits (GE Healthcare); native mass compared with the subunit mass by SDS-PAGE; 50 mM Tris-HCl, pH 7.5, 1.5 M KCl. The source holds these as a separate data set.
Setting [11] is: MgCl2, 1 M KCl, pH 7.0, 42°C, pH 7.0.
The mark [12] stands for this setting: recombinant, MgCl2, 2 M KCl, pH 7.5, 42°C.
The mark [13] stands for this setting: recombinant, MgCl2, 2 M KCl, pH 7.5, 42°C, pH 7.5.

Read-outs that look alike come from different tables or passages of the source.

Usually stoichiometry N stands for the number of molecules, sites or subunits per partner or assembly. As usually defined, the Km is the substrate concentration at which the rate is half of its maximum. As a reminder, the Vmax is the top rate of the reaction or transport when substrate is in excess.

As to “Malic enzyme Mae1 from Haloferax volcanii, recombinant”, in data set [1], the stoichiometry N is 8.

B1: Mae1 (Haloferax volcanii DS2) (protein)
chain: MGLDDDSRKYHRQDPPGKIEIATTKPTNTQRDLSLAYSPGVAAPCLDIAEDEDAAYEYTAKGNLVGVVSNGSAVLGLGDIGAQASKPVMEGKGVLFKRFADIDVFDVELDIADVDDFVAATKAMEPTFGGINLEDIKAPECFEIERQLREQMDIPVFHDDQHGTAIISGAALLNAADIVDKDLDELDIVFSGAGASALATARFYVSLGAKKENITMCDSSGIITESRVEDGDVNKYKAEFAKPVDEGSLSDAMEGADVLAGLSVGGIVSQEMVRSMADNPVIFAMANPDPEITYEDAKDARDDTVIMATGRSDYPNQVNNVLGFPFIFRGALDVRATEINEAMKRAAAEALAELARQDVPDAVVKAYGDHPLQFGADYVIPKPLDPRVLFEVAPAVAQAAMTSGAARERLDMNAYREELEARLGKSREMMRVVLNKAKSNPKRVALAEGEDEKMIRAAYQMQEEGIAEPILVGETTTILRKAEELGLDFDPTIANPRDGEWDHYVDRLYELRQRKGVTNSEAEELVRRDSNYFASVMVEVGDADAMLTGLTHHYPSALRPPLQIIGTADDADYAAGVYMMTFKNRVVFCADTTVNLDPDEEVLAEITKHTADLARQFNVEPRAALLSYSNFGSVTNEGTRKPRDAAALLQDDPEVDFPVDGEMQADTALVEDILEGTYDFAELDGPANVLVFPNLEAGNIGYKLLQRLGGAEAIGPMLVGMDKPVHVLQRGDEVKDIVNLAATAVVDAQEE
notes: full length with C-terminal PTA domain, Ni-NTA purified, homologous expression in H. volcanii
Take B1: the Km in the data set “purified protein [2]” was 60 µM; in the data set “purified protein [3]”, 100 µM; in the data set “purified protein [4]”, 650 µM.

B2: AMP-forming acetyl-CoA synthetase ACS1 from Haloferax volcanii, recombinant (enzyme, UniProt D4GUW1 1-662, looked up)
chain: MADGDTELEARLVEQEEFEPSEEFVAQANVSDPAVYDEFEENWPDCWERAAEMLDWDEKYDEVLDDSNPPFYEWFTGGKLNVSYNCVDRHVENGDKNRVAIKWEGEHGETRTYTYQDLYREVNEFAAALRDLGVEEDDVVTLYMPMIPELPIAMLACARIGAPHSVVFGGFSAEALATRMNAADSRFLVTCDGYYRRGDPLDHLDKANEGLDGVDHGVDATVVVDRLGDDGFDHDLKGNQHDWDDLLDEHAGERIDPVERDAEDMLFLMYTSGTTGQPKGVKHTTGGYLAYAAWTSHAVLDIEKEDTYWCSADIGWITGHSYIVYGPLALGTTTVMYEGTPDFPNRDRLWDIIEKYAVDIFYTAPTAIRAFMKWGSRFPEQHDLSSLRLLGTVGEPINPRAWKWYYKHIGNEDCPVVDTWWQTETGGMMITTLPGIKKMKPGSAGPPLPGIDAQIVDTSGKQVDAGRAGYLTVNKPWPGMLRTLYKNDERFIQEYWQEYSDTDSDDPDDWVYFPEDGAKIDGDDYITILGRVDDVINVSGHRLGTMEIESAIVGVEGVAEAAVVGGNHEVKGEAVYAYVITEEGQDEDDEMRGRIIEGVEDAIGPIARPEMVVFTPELPKTRSGKIMRRLLEEIANGEELGDTTTLRNPEVVESIQRQVESE
notes: AMP-forming acetyl-CoA synthetase ACS1 of Haloferax volcanii, gene acs1, locus tag HVO_0894; calculated subunit 71.2 kDa; gene amplified from genomic DNA; also called HVO_0894; source: H. volcanii H1209 (plasmid pTA963, homologous overexpression), purified (Ni-NTA, Superdex 200)
Consider B2, for which the “stoichiometry N” value in [5] is 2. Besides, the Km in the data set “purified protein [6]” is 570 µM; in the data set “purified protein [7]” (MgCl2, 1 M KCl, pH 7.0, 42°C) it was 480 µM; in the data set “purified protein [8]” (MgCl2, 1 M KCl, pH 7.0, 42°C), 730 µM; in “purified protein [9]” (setting [11]), 90 µM. Besides, the Vmax in “purified protein [6]” was 0.25 µmol/min/mg; in “purified protein [9]” (setting [11]), 0.4 µmol/min/mg.

B3: ACS2 (Haloferax volcanii DS2) (protein)
chain: MKKPLLVTEFLDRARRYYGDEEAVVATTGERFTYDELGERADGFSAALQSRGVEKGDRVAVLDPNTHYHLEAAYGSMQLGAVHMPLNYRLVPADFEYVLNDADVTAVYADYAFAEKIDAVRDEIPAEIFVTNDPEKAAESTDGEWLDFDELVAESTDYERPEMDEDDIITINYTSGTTGDPKGVCRTHRAETIHAYLISMHQDIGDDDVYLWTLPMFHVNGWGHIYAITGHGAKHVCTRGVEAEAVLDAIRDEDVSYLCAAPTVLNILMKHYREEGGVETTGASPVRAATAGAAPPEATIRTVEDEFGWRLMHVYGATETGPLITTSEAGRYLTDGDDRFGVKKKQGIGYLGTDVRVVDEDGTDVPRDEQSVGEIVVTGNQVMEKYWNKPEETEEAFSARLEGYYHMGDLAVVDENGFISIQDRKKDIIISGGENISSIELEDTLFDHDEVADVAVIPVPSDEWGESPKAFVVPTSGDPDAPGVTAEALIAFCRERIATYKVPKEVEFVTELPKTATGKVQKYELREREWEDEGRMMGEG
notes: full length, Ni-NTA purified (pTA963), homologous expression in H. volcanii
B3: the Km in “purified protein [7]” (setting [12]) came to 430 µM; in the data set “purified protein [8]” (setting [12]) it was 2210 µM; in the data set “purified protein [9]” (setting [13]) it was 1500 µM. In the data set “purified protein [9]” (setting [13]), the Vmax worked out at 1.5 µmol/min/mg.

B4: AMP-forming acetyl-CoA synthetase ACS2 purified from acetate-grown Haloferax volcanii cells (enzyme, UniProt D4GUW5 1-540, looked up)
chain: MKKPLLVTEFLDRARRYYGDEEAVVATTGERFTYDELGERADGFSAALQSRGVEKGDRVAVLDPNTHYHLEAAYGSMQLGAVHMPLNYRLVPADFEYVLNDADVTAVYADYAFAEKIDAVRDEIPAEIFVTNDPEKAAESTDGEWLDFDELVAESTDYERPEMDEDDIITINYTSGTTGDPKGVCRTHRAETIHAYLISMHQDIGDDDVYLWTLPMFHVNGWGHIYAITGHGAKHVCTRGVEAEAVLDAIRDEDVSYLCAAPTVLNILMKHYREEGGVETTGASPVRAATAGAAPPEATIRTVEDEFGWRLMHVYGATETGPLITTSEAGRYLTDGDDRFGVKKKQGIGYLGTDVRVVDEDGTDVPRDEQSVGEIVVTGNQVMEKYWNKPEETEEAFSARLEGYYHMGDLAVVDENGFISIQDRKKDIIISGGENISSIELEDTLFDHDEVADVAVIPVPSDEWGESPKAFVVPTSGDPDAPGVTAEALIAFCRERIATYKVPKEVEFVTELPKTATGKVQKYELREREWEDEGRMMGEG
notes: AMP-forming acetyl-CoA synthetase ACS2 of Haloferax volcanii, gene acs2, locus tag HVO_0896; identified by MALDI-TOF MS of the 69 kDa subunit; Native enzyme, no tag; also called HVO_0896
For the molecule B4, in data set [10], the “stoichiometry N” value worked out at 2.

B5: AMP-forming acetyl-CoA synthetase ACS2 from Haloferax volcanii, recombinant (enzyme, UniProt D4GUW5 1-540, looked up)
chain: MKKPLLVTEFLDRARRYYGDEEAVVATTGERFTYDELGERADGFSAALQSRGVEKGDRVAVLDPNTHYHLEAAYGSMQLGAVHMPLNYRLVPADFEYVLNDADVTAVYADYAFAEKIDAVRDEIPAEIFVTNDPEKAAESTDGEWLDFDELVAESTDYERPEMDEDDIITINYTSGTTGDPKGVCRTHRAETIHAYLISMHQDIGDDDVYLWTLPMFHVNGWGHIYAITGHGAKHVCTRGVEAEAVLDAIRDEDVSYLCAAPTVLNILMKHYREEGGVETTGASPVRAATAGAAPPEATIRTVEDEFGWRLMHVYGATETGPLITTSEAGRYLTDGDDRFGVKKKQGIGYLGTDVRVVDEDGTDVPRDEQSVGEIVVTGNQVMEKYWNKPEETEEAFSARLEGYYHMGDLAVVDENGFISIQDRKKDIIISGGENISSIELEDTLFDHDEVADVAVIPVPSDEWGESPKAFVVPTSGDPDAPGVTAEALIAFCRERIATYKVPKEVEFVTELPKTATGKVQKYELREREWEDEGRMMGEG
notes: AMP-forming acetyl-CoA synthetase ACS2 of Haloferax volcanii, gene acs2, locus tag HVO_0896; calculated subunit 59.8 kDa; gene amplified from genomic DNA; also called recombinant ACS2; HVO_0896; source: H. volcanii H1209 (plasmid pTA963, homologous overexpression), purified (Ni-NTA, size exclusion chromatography)
B5: the “stoichiometry N” value in data set [5] was 2.

B6: AMP-forming acetyl-CoA synthetase ACS9 from Haloferax volcanii, recombinant (enzyme, UniProt D4GRL3 1-538, looked up)
chain: MKKQLLVTDFLDRARTYYGDYEAVVGVDGERFTYAEFGERVDRFSAALQSRGVEKGDRVAVLDPNTHYHLEAAFGAMQCGALHVPLNYRLTTDDYEYLLSDSGATVVYADYQYAGKIEAVRDDVPAEVFVTNDPAAVDGDWLDFEAFLDEADADDYERPEMSEDELITINYTSGTTGDPKGVCRTHRTESLHAQLVTIHHHIGDDDVYLWTLPMFHVNGWGHIYAVTGRGAKHVCTRGVEAEAVFDAITEEDVSFFCCAPTVLSILREYAEEHDPAYAGDNPVRVTAAGSAAPSATIRHTESEFGWEFTQLYGATETGPLIATSDANRLIPDEGGLRFSLKQRQGVAPLGTDLRVVDDDGEQVPRGDATIGEVVVRGNQVMEKYWNKPDETHDAFNDRLEGWYHTGDLAVVNEDGMIAIQDRKKDIIISGGENISSVELEDALFDHDAVGDVAVIPAPSEKWGETPKAFVVPANGDVENPGVTAEELTAYTRDRLAGYKAIREFEFVAEIPKTATGKIQKYELRKREWDDEERMVGQG
notes: 59 kDa subunits; gene amplified from genomic DNA; source: H. volcanii H1209 (plasmid pTA963, homologous overexpression), purified (Ni-NTA, Superdex 200)
Turning to B6, the “stoichiometry N” value in data set [10] is 2.

Source of the values: PMC7746861, “Acetate Metabolism in Archaea: Characterization of an Acetate Transporter and of Enzymes Involved in Acetate Activation and Gluconeogenesis in Haloferax volcanii” (Frontiers in Microbiology, 2020).
